Experimental data published in article PMC9499943 (2022).
Values joined by “and” are separate entries in the source; they are usually repeats but may differ in a detail not shown here. Equal values may be shown once.

B1: CoV2-06 (antibody, V domains shown)
VH: QVELQESGPGLVKPSGTLSLTCAVSGGSISSNNWWTWVRQPPGKGLEWIGEIHHSGGTNYNPSLKSRVTMSVDKSKNQFSLNLYSVTAADTAVYYCTRDRAGGTYSGFDFWGQGTLVTVSS
VL: QAVVTQPASVSGSPGQSITISCTGTSSDVGGYNYVSWYQQHPGKAPKLMIYDVSNRPSGVSNRFSGSKSGNTASLTISGLQAEDEADYYCSSYTSSSTVVFGGGTKVTVL
B2: CoV2-14 (antibody, V domains shown)
VH: EVQLQQSGPGLVKPSQTLSLTCAISGDSVSSNSAAWNWIRQSPSRGLEWLGRTYYRSKWYNDYAVSVKSRITINPDTSKNQFSLQLNSVTPEDTAVYYCAREEQQLVHDYYYYGMDVWGQGTMVTVSS
VL: QAVVTQPASVSGSPGQSITISCTGTSSDIGAYNYISWYQQHPGKAPKLIIYEVSNRPSGISYRFSGSKSGNTASLTISGLQAEDEANYYCSSYAGSISFGGGTKVTVL

How the values were obtained:
[1] = biological target: T1, His-tagged RBD (RBD-His) protein of SARS-CoV-2 (SARS-CoV-2, UniProt P0DTC2 319-541); assay: BLI
[2] = biological target: T1, His-tagged RBD (RBD-His) protein of …; assay: BLI; remark: listed apart in the source

Row | Binder | Kd [1] | koff [2]
1 | B1 | 0.27 nM and 0.09 nM | 
2 | B2 | 0.62 nM and 0.58 nM | 0.000222 s⁻¹ and 0.000552 s⁻¹
